Experimental data from patent US20200239543A1 (ALX ONCOLOGY, published 2020).

Experiments:
[1] = target: T1, human Fcγ receptor RI (CD64) (human, UniProt P12314 16-288); assay: SPR (ProteOn XPR36), biotinylated Fc construct on NLC chip, hFcγR as analyte, KD,app
T1 construct: bought recombinant protein; also called hFcγRI; hFcγR

[2] = target: T2, human Fcγ receptor RIIA (CD32a) (human, UniProt P12318 36-218); assay: as above
T2 construct: bought recombinant protein; also called hFcγR
T2 sequence (looked up): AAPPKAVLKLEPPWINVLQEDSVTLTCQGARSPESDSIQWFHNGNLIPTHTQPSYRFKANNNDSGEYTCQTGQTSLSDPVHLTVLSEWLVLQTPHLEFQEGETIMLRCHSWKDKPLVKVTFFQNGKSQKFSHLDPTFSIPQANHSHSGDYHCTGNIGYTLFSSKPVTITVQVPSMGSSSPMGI

[3] = target: T3, human Fcγ receptor RIIB/C (CD32b/c) (human, UniProt P31994 46-217); assay: as above
T3 construct: bought recombinant protein; also called CD32c; hFcγR
T3 sequence (looked up): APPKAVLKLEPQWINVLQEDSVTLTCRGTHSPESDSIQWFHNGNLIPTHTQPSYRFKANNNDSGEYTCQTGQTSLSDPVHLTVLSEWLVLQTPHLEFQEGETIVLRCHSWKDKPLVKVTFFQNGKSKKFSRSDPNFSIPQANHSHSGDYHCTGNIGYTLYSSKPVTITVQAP

[4] = target: T4, human Fcγ receptor RIIIA (CD16a) (human, UniProt P08637 17-208); assay: as above
T4 construct: bought recombinant protein; also called hFcγR
T4 sequence (P08637 17-208 limits assumed): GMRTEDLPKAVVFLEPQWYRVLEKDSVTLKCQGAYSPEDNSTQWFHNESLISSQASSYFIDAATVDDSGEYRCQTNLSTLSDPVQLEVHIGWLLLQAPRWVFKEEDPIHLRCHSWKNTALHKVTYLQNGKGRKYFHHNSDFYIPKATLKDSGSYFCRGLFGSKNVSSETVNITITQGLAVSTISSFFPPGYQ

[5] = target: T5, EGFR-ECD (epidermal growth factor receptor extracellular domain produced in HEK293 cells) (UniProt P00533 25-645, limits assumed); assay: SPR (Proteon GLC chip), EGFR-ECD injected in the second injection over construct A bound to immobilised CD47
T5 construct: extracellular domain

[6] = target: T6, human CD47 (human, UniProt Q08722 19-139); assay: SPR (Biacore T100 and ProteOn XPR36)
T6 construct: extracellular domain; also called CD47 ECD
T6 sequence (Q08722 19-139 limits assumed): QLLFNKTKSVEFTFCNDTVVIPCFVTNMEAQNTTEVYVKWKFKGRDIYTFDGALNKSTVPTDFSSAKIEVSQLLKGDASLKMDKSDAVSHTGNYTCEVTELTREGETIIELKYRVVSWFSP

[7] = target: T3, human Fcγ receptor RIIB/C (CD32b/c); assay: SPR (ProteOn XPR36), biotinylated Fc construct on NLC chip, hFcγR as analyte
[8] = target: T4, human Fcγ receptor RIIIA (CD16a); assay: as above
[9] = target: T1, human Fcγ receptor RI (CD64); assay: as above
[10] = target: T2, human Fcγ receptor RIIA (CD32a); assay: as above
[11] = target: T6, human CD47; assay: SPR (Proteon GLC chip), CD47 immobilised by amine coupling, construct injected as analyte in the first injection (100 nM per paragraph 377)
[12] = target: T5, EGFR-ECD (epidermal growth factor …); assay: SPR (Proteon GLC chip), EGFR-ECD injected in the second injection over construct B bound to immobilised CD47
[13] = target: T6, human CD47; assay: SPR as in Example 1
[14] = target: T7, mouse CD47 (mouse, UniProt Q61735 19-140, limits assumed); assay: SPR, 25 C, 1:1 Langmuir fit
T7 construct: also called mouse CD47 protein
T7 sequence (looked up): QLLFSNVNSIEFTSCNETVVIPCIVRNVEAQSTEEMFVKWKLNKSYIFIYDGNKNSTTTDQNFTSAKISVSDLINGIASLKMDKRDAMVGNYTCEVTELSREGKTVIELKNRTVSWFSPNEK

[15] = target: T6, human CD47; assay: SPR, 25 C, 1:1 Langmuir fit
[16] = target: T5, EGFR-ECD (epidermal growth factor …); assay: SPR (Proteon GLC chip), EGFR-ECD injected in the second injection over construct C bound to immobilised CD47

T1 sequence (P12314 16-288 limits assumed): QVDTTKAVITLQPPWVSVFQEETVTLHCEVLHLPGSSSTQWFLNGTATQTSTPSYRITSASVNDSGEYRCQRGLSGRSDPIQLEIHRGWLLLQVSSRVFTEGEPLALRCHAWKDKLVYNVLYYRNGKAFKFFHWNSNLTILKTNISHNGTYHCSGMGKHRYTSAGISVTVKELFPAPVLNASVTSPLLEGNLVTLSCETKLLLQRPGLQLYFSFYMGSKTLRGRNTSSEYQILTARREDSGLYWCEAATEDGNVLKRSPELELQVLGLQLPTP

Fc variant construct IgG4_S228P, L235E (Fc fusion)
Kd [1]: 60 nM | Kd [2]: 1200 nM | Kd [3]: 1100 nM | Kd [4]: 2400 nM

Fc variant construct IgG4_S228P (Fc fusion)
Kd [1]: 1 nM | Kd [2]: 810 nM | Kd [3]: 850 nM

B1: SIRP-α-Fc fusion, homodimer of SEQ ID NO: 136 (Fc fusion)
chain: EEELQIIQPDKSVLVAAGETATLRCTITSLFPVGPIQWFRGAGPGRELIYNQREGPFPRVTTVSDTTKRNNMDFSIRIGAITPADAGTYYCVKFRKGSPDDVEFKSGAGTELSVRAKPSDKTHTCPPCPAPEAAGAPSVFLFPPKPKDTLMISRTPEVTCVVVDVSHEDPEVKFNWYVDGVEVHNAKTKPREEQYASTYRVVSVLTVLHQDWLNGKEYKCKVSNKALPAPIEKTISKAKGQPREPQVYTLPPSREEMTKNQVSLTCLVKGFYPSDIAVEWESNGQPENNYKTTPPVLDSDGSFFLYSKLTVDKSRWQQGNVFSCSVMHEALHNHYTQKSLSLSPG
binding result [5]: no binding | Kd [6]: 0.139 nM

B2: SIRP-α Fc construct with wildtype IgG2 Fc, SEQ ID NO: 126 (Fc fusion)
chain: EEELQIIQPDKSVLVAAGETATLRCTITSLFPVGPIQWFRGAGPGRVLIYNQRQGPFPRVTTVSDTTKRNNMDFSIRIGNITPADAGTYYCIKFRKGSPDDVEFKSGAGTELSVRAKPSERKCCVECPPCPAPPVAGPSVFLFPPKPKDTLMISRTPEVTCVVVDVSHEDPEVQFNWYVDGVEVHNAKTKPREEQFNSTFRVVSVLTVVHQDWLNGKEYKCKVSNKGLPAPIEKTISKTKGQPREPQVYTLPPSREEMTKNQVSLTCLVKGFYPSDIAVEWESNGQPENNYKTTPPMLDSDGSFFLYSKLTVDKSRWQQGNVFSCSVMHEALHNHYTQKSLSLSPGK
Kd [1]: 700 nM | Kd [2]: 420 nM | binding result [7]: no binding (tested: 5000 nM) | binding result [8]: no binding (tested: 5000 nM)

B3: SIRP-α Fc construct with Fc variant IgG2_N297A, SEQ ID NO: 128 (Fc fusion)
chain: EEELQIIQPDKSVLVAAGETATLRCTITSLFPVGPIQWFRGAGPGRVLIYNQRQGPFPRVTTVSDTTKRNNMDFSIRIGNITPADAGTYYCIKFRKGSPDDVEFKSGAGTELSVRAKPSERKCCVECPPCPAPPVAGPSVFLFPPKPKDTLMISRTPEVTCVVVDVSHEDPEVQFNWYVDGVEVHNAKTKPREEQFASTFRVVSVLTVVHQDWLNGKEYKCKVSNKGLPAPIEKTISKTKGQPREPQVYTLPPSREEMTKNQVSLTCLVKGFYPSDIAVEWESNGQPENNYKTTPPMLDSDGSFFLYSKLTVDKSRWQQGNVFSCSVMHEALHNHYTQKSLSLSPGK
binding result [9]: no binding (tested: 5000 nM) | binding result [10]: no binding (tested: 5000 nM) | binding result [7]: no binding (tested: 5000 nM) | binding result [8]: no binding (tested: 5000 nM)

B4: single-arm SIRP-α-Fc fusion, heterodimer of SEQ ID NO: 139 (an Fc variant) and SEQ ID NO: 142 (a SIRP-α-Fc fusion) (Fc fusion)
chain 1: EEELQIIQPDKSVLVAAGETATLRCTITSLFPVGPIQWFRGAGPGRELIYNQREGPFPRVTTVSDTTKRNNMDFSIRIGAITPADAGTYYCVKFRKGSPDDVEFKSGAGTELSVRAKPSDKTHTCPPCPAPEAAGAPSVFLFPPKPKDTLMISRTPEVTCVVVDVSHEDPEVKFNWYVDGVEVHNAKTKPREEQYASTYRVVSVLTVLHQDWLNGKEYKCKVSNKALPAPIEKTISKAKGQPREPQVYTLPPSREEMTKNQVSLWCLVKGFYPSDIAVEWESNGQPENNYKTTPPVLDSDGSFFLYSKLTVDKSRWQQGNVFSCSVMHEALHNHYTQKSLSLSPGK
chain 2: DKTHTCPPCPAPEAAGAPSVFLFPPKPKDTLMISRTPEVTCVVVDVSHEDPEVKFNWYVDGVEVHNAKTKPREEQYASTYRVVSVLTVLHQDWLNGKEYKCKVSNKALPAPIEKTISKAKGQPREPQVYTLPPSREEMTKNQVSLSCAVKGFYPSDIAVEWESNGQPENNYKTTPPVLDSDGSFFLVSKLTVDKSRWQQGNVFSCSVMHEALHNHYTQKSLSLSPGK
notes: knob and hole heterodimer
binding result [11]: binds | binding result [12]: no binding

B5: SIRP-α D1 variant fused to Fc variant IgG1 L234A, L235A, G237A, N297A, SEQ ID NO: 96 (Fc fusion)
chain: EEELQIIQPDKSVLVAAGETATLRCTITSLFPVGPIQWFRGAGPGRVLIYNQRQGPFPRVTTVSDTTKRNNMDFSIRIGNITPADAGTYYCIKFRKGSPDDVEFKSGAGTELSVRAKPSDKTHTCPPCPAPEAAGAPSVFLFPPKPKDTLMISRTPEVTCVVVDVSHEDPEVKFNWYVDGVEVHNAKTKPREEQYASTYRVVSVLTVLHQDWLNGKEYKCKVSNKALPAPIEKTISKAKGQPREPQVYTLPPSREEMTKNQVSLTCLVKGFYPSDIAVEWESNGQPENNYKTTPPVLDSDGSFFLYSKLTVDKSRWQQGNVFSCSVMHEALHNHYTQKSLSLSPGK
binding result [9]: no binding (tested: 5000 nM) | binding result [10]: no binding (tested: 5000 nM) | binding result [7]: no binding (tested: 5000 nM) | binding result [8]: no binding (tested: 5000 nM) | Kd [13]: 0.0351 nM | Kd [14]: 33.2 nM | Kd [15]: 0.0104 nM

B6: single-arm SIRP-α-Fc fusion, heterodimer of SEQ ID NO: 139 (an Fc variant) and SEQ ID NO: 138 (a SIRP-α Fc fusion) (Fc fusion)
chain 1: EEELQIIQPDKSVLVAAGETATLRCTITSLFPVGPIQWFRGAGPGRVLIYNQRQGPFPRVTTVSDTTKRNNMDFSIRIGAITPADAGTYYCIKFRKGSPDDVEFKSGAGTELSVRAKPSDKTHTCPPCPAPEAAGAPSVFLFPPKPKDTLMISRTPEVTCVVVDVSHEDPEVKFNWYVDGVEVHNAKTKPREEQYASTYRVVSVLTVLHQDWLNGKEYKCKVSNKALPAPIEKTISKAKGQPREPQVYTLPPSREEMTKNQVSLWCLVKGFYPSDIAVEWESNGQPENNYKTTPPVLDSDGSFFLYSKLTVDKSRWQQGNVFSCSVMHEALHNHYTQKSLSLSPGK
chain 2: DKTHTCPPCPAPEAAGAPSVFLFPPKPKDTLMISRTPEVTCVVVDVSHEDPEVKFNWYVDGVEVHNAKTKPREEQYASTYRVVSVLTVLHQDWLNGKEYKCKVSNKALPAPIEKTISKAKGQPREPQVYTLPPSREEMTKNQVSLSCAVKGFYPSDIAVEWESNGQPENNYKTTPPVLDSDGSFFLVSKLTVDKSRWQQGNVFSCSVMHEALHNHYTQKSLSLSPGK
notes: knob and hole heterodimer
binding result [11]: binds | binding result [16]: no binding

B7: SIRP-α Fc construct with Fc variant IgG1_AAA (L234A, L235A, G237A), SEQ ID NO: 124 (Fc fusion)
chain: EEELQIIQPDKSVLVAAGETATLRCTITSLFPVGPIQWFRGAGPGRVLIYNQRQGPFPRVTTVSDTTKRNNMDFSIRIGNITPADAGTYYCIKFRKGSPDDVEFKSGAGTELSVRAKPSDKTHTCPPCPAPEAAGAPSVFLFPPKPKDTLMISRTPEVTCVVVDVSHEDPEVKFNWYVDGVEVHNAKTKPREEQYNSTYRVVSVLTVLHQDWLNGKEYKCKVSNKALPAPIEKTISKAKGQPREPQVYTLPPSREEMTKNQVSLTCLVKGFYPSDIAVEWESNGQPENNYKTTPPVLDSDGSFFLYSKLTVDKSRWQQGNVFSCSVMHEALHNHYTQKSLSLSPGK
Kd [1]: 8000 nM | Kd [2]: 2300 nM | binding result [7]: no binding (tested: 5000 nM) | binding result [8]: no binding (tested: 5000 nM)
